Experimental findings from US20140314744A1 (NEOTOPE BIOSCIENCES, published 2014) are described below.

For assay [1], the target named is T1, mouse MCAM (full length, on transfected CHO cells) (mouse, UniProt Q8R2Y2 24-648).
T1 construct: whole, on cells; also called murine MCAM; mouse MCAM transfected CHO cells
T1 sequence (looked up): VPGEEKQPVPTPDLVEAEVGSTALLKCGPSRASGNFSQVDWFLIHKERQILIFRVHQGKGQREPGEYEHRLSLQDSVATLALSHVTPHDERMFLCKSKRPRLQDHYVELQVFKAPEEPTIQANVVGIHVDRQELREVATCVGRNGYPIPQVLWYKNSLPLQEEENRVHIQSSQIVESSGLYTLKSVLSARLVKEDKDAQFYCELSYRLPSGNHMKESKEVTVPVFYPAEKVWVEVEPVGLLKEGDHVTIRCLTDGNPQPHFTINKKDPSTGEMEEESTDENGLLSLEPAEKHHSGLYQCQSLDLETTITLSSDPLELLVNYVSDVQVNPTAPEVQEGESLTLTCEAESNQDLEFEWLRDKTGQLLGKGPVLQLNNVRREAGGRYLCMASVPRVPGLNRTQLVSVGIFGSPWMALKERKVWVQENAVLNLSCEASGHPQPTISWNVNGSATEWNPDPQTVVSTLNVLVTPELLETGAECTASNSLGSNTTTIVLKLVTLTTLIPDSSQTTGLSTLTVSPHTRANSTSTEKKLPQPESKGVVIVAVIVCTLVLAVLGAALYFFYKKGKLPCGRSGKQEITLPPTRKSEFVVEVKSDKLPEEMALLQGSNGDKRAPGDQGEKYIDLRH
Put plainly: flow cytometry on MCAM transfected cells mixed with CFSE-labelled untransfected cells. On the procedure:
MCAM-Fc was generated by fusing the extracellular domain of murine MCAM to human IgG and produced in CHO cells using standard techniques. Lou/M rats were immunized with 100 μg of MCAM-Fc protein in CFA (1:1 volume). Rats were boosted two times at two week intervals with MCAM-Fc protein in incomplete Freund's adjuvant (IFA) (1:1 volume). Hybridomas were generated from immunized rats using standard protocols and clones were selected by Clonepix. CHO cells were transfected with the full length murine MCAM gene and selected for stable expression using neomycin and standard techniques. Parental CHO cells (MCAM negative) were fluorescently labeled with carboxyfluorescein succinimidyl ester (CFSE) using standard techniques and mixed at a 1:1 ratio with unlabeled MCAM transfected CHO cells. Hybridoma supernatants were incubated with this mixture of cells for 30 minutes and binding of potential MCAM specific antibodies was detected with a fluorescently labeled anti-rat secondary antibody (Jackson Immuno) by flow cytometry.
(§1) Monoclonal antibodies against mouse MCAM were generated as described in Materials and Methods above. The specific binding between the monoclonal antibody and MCAM was confirmed by assessing the monoclonal antibody's ability to bind to cells transfected with either mouse or human MCAM. For this, untransfected cells were labeled with carboxyfluorescein succinimidyl ester (CFSE) and mixed with unlabeled MCAM transfected cells. Untransfected cells (in blue) could therefore be differentiated.

Assay [2] addresses T2, human MCAM (on transfected cells) (human, UniProt P43121 24-646).
T2 construct: Cells transfected with human MCAM; also called CD146; MUC18
T2 chain: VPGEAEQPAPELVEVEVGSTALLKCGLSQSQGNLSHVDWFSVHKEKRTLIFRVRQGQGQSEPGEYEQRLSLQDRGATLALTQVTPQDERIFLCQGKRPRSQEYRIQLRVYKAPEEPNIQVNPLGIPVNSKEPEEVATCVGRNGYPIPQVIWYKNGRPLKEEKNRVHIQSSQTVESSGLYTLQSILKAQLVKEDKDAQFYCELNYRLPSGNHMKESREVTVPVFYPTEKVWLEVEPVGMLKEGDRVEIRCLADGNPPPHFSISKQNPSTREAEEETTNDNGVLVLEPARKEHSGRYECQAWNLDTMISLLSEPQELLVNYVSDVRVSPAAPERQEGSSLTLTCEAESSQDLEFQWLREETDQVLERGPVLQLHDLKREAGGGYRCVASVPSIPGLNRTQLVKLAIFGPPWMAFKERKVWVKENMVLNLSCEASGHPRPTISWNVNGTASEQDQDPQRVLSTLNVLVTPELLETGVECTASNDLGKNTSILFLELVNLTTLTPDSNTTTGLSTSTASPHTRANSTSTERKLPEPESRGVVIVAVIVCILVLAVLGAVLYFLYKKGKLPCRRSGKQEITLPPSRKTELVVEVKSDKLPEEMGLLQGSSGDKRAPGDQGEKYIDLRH
The assay is described as follows: flow cytometry on human MCAM transfected cells mixed with CFSE-labelled untransfected cells.
Text: as §1
Background: A flow cytometer gives signals particle by particle.

For assay [3], the target named is T3, murine MCAM-Fc (extracellular domain of murine MCAM fused to human IgG) (mouse, UniProt Q8R2Y2 24-563).
T3 construct: extracellular domain; Produced in CHO cells; also called mouse MCAM-Fc protein; full length mouse MCAMhFc protein; not shown: human IgG (Fc) part
T3 sequence (looked up): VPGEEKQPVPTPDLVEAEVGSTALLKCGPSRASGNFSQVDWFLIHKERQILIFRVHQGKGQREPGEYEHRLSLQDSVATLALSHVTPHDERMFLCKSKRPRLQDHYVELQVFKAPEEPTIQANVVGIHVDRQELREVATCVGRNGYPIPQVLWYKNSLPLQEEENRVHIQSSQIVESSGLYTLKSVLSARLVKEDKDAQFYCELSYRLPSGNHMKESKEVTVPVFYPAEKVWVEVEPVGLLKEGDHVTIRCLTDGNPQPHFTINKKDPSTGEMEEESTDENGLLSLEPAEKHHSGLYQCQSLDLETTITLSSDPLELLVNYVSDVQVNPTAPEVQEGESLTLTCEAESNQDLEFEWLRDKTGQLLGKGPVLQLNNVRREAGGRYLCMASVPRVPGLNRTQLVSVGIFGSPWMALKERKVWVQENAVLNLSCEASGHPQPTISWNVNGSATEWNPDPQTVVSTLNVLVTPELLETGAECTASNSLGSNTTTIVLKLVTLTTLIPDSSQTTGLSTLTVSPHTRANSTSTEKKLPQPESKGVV
Put plainly: ForteBio Octet Red, anti-human IgG Fc biosensor loaded with mouse MCAMhFc (5 ug/ml), dipped into clone 15 (5 ug/ml) or SP2 media. The source says:
(§2) The following protocol was used: ForteBio Domain Mapping Protocol. ForteBio anti-human IgG Fc biosensors were used to immobilize various mouse MCAMhFc domains including full length mouse MCAMhFc protein on to biosensor surface. These sensors were dipped into either clone 15 or 17 MCAM specific antibody for detection of binding to these domains or full length protein. After loading these samples into a black 96 well plate, the Octet Red was programmed as follows: 60 seconds for baseline #1; 180 seconds for loading various domains; 60 seconds for baseline #2; 180 seconds for association of antibody to domain; and 240 seconds for dissociation of antibody from domain.
(§3) For FIG. 10A-B, clones 15 and 17 were tested against the following protein samples (all have human IgG Fc tag): […]
Background: In BLI a coated tip is dipped into the sample, and binding shifts an interference pattern.

Assay [4] has as its target T4, Murine MCAM domain 1 and 2 (Ig1-2A) with human IgG Fc tag (mouse, UniProt Q8R2Y2 24-244, limits assumed).
T4 construct: domain: domain 1 and 2 (Ig1-2A); also called MCAM Fc domains 1 and 2; not shown: human IgG Fc tag
T4 sequence (looked up): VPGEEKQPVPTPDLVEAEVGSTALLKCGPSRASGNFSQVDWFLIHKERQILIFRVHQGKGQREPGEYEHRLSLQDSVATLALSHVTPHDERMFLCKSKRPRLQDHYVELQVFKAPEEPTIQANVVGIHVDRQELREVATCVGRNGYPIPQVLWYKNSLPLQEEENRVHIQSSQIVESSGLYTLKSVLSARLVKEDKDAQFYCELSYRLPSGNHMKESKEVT
Put plainly: ForteBio Octet Red, domains on anti-human IgG Fc biosensors.
Text: as §2

The target in assay [5] is T5, Murine MCAM domain 1 (Ig1) with human IgG Fc tag (mouse, UniProt Q8R2Y2 24-131, limits assumed).
T5 construct: domain: domain 1 (Ig1); also called MCAM Fc domain 1; not shown: human IgG Fc tag
T5 sequence (looked up): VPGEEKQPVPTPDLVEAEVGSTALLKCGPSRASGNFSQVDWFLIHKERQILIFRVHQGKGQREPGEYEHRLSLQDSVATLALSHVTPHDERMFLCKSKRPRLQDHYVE
Described as above.
Text: as §2

The next assay addresses T6, Ig2 domain (mouse, UniProt Q8R2Y2).
T6 construct: immunoglobulin domain 2 alone; also called Murine MCAM domain 2 (Ig2)
T6 sequence (Fc fusion chain, looked up): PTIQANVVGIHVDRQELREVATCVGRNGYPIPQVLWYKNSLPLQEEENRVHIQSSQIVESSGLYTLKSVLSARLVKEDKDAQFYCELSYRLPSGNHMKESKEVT
The assay is described as follows: ForteBio Octet Red, anti-human IgG Fc biosensor loaded with the Ig2 domain hFc protein, dipped into clone 15 or SP2 media.
Text: as §2, §3

For assay [6], the target named is T7, Recombinant human laminin 511 (Biolamina) (human, UniProt O15230 36-3695; P07942 22-1786; P11047 34-1609).
T7 construct: Trimer α5β1γ1, bought; negative control
The assay is described as follows: SPR (Biacore T200). In general terms: SPR reads the build-up and loss of mass on a sensor chip optically.

Assay [7] concerns the target T8, Recombinant human laminin-α4 (R&D systems) (human, UniProt Q16363-2 826-1816).
T8 construct: also called laminin 4A chain; laminin A4 (α4) chain
T8 sequence (looked up): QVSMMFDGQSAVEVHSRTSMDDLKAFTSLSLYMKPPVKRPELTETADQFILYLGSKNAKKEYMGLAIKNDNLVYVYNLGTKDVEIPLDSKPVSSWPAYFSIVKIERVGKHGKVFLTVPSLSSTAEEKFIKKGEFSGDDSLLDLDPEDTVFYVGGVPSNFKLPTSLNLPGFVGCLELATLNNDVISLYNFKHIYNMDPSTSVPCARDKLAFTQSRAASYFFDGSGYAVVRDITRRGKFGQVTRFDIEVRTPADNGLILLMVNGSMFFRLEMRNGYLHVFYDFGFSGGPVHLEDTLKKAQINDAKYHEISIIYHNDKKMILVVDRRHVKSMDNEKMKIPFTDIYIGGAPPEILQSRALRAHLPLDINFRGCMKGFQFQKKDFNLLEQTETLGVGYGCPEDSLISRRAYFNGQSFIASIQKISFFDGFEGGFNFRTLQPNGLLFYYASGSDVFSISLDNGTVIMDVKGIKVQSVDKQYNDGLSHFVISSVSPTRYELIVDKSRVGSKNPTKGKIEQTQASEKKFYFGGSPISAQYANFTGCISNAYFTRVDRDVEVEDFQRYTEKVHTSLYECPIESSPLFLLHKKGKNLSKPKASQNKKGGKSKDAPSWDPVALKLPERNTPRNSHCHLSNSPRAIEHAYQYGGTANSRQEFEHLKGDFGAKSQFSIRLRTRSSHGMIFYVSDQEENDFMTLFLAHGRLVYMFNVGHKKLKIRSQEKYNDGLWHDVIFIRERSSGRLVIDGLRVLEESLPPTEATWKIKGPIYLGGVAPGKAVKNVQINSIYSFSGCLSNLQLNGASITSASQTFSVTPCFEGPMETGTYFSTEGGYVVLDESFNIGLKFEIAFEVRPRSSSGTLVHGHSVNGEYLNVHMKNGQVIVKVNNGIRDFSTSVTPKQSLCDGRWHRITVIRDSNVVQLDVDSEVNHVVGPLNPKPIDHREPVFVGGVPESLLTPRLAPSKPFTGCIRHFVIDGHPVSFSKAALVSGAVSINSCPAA
The assay is described as follows: SPR (Biacore T200).

B1: clone 15 monoclonal antibody (rat anti-MCAM) (antibody, V domains shown)
VH: EVRLVESGGGLVQPGKSMKLSCVASGFKFSNYYMSWVRQAPAKGLEWVASISDGGGDTFCRDLVKGRFTISRDNAKSTLYLQMDSLRPEDTATYYCARRGAAMGGVMDAWGQGTSVTVSS
VL: DIVMTQSPSSLAVSAGETVSIHCKSSQSLLYSGTQKNYLAWFQQKPGQSPKLLIFWASTRQSGVPDRFIGRGSGTDFTLTISGVQAEDLAIYYCQQYYDTLTDTFGAGTKLELKR
notes: Rat monoclonal from a hybridoma; also called anti-MCAM antibody (clone 15)
B1: the binding result in assay [1] is reported as “binds”; in assay [2] it was “no binding”; in assay [3], “binds”; in assay [4], “binds”; in assay [5], “no binding (tested: 5 ug/ml)”; in the assay with Ig2 domain, “no binding (tested: 5 ug/ml)”.

B2: MCAM Fc domain 1 alone (Example 9) (Fc fusion)
chain: PRVAGVPGEAEQPAPELVEVEVGSTALLKCGLSQSQGNLSHVDWFSVHKEKRTLIFRVRQGQGQSEPGEYEQRLSLQDRGATLALTQVTPQDERIFLCQGKRPRSQEYRIQ
notes: not shown: Fc tag; not described
For the molecule B2, the binding result in assay [6] and in assay [7] was “no binding (tested: 5-175 nM)” throughout.
